Measured values reported in publication PMC5626551.
Each block holds one substance with its values, some of them ahead of it.

Columns and labels:
[1] = molecular target: 14-3-3ε (UniProt P92177); test: MBP-14-3-3ε amylose pull-down of purified tail; conditions: reference: Ncd tail without kinase; sites S96
[2] = molecular target: 14-3-3ε (UniProt P92177); test: GST-14-3-3ε pull-down, anti-GFP blot; conditions: reference: wild type Ncd-GFP; sites S96
[3] = molecular target: 14-3-3ε (UniProt P92177); test: MBP-14-3-3ε pull-down, anti-pS96 blot; conditions: reference: unphosphorylated Ncd tail (control not described in text); sites S96

- binding against the reference [1]: stronger
Substance: Ncd (kinesin-14) tail, 58-192 (from UniProt P20480) PKD2-phosphorylated Ncd tail

- binding against the reference [2]: weaker
Substance: Ncd (kinesin-14) (from UniProt P20480) S96A

- binding against the reference [3]: stronger
Substance: Ncd (kinesin-14) tail, 58-192 (from UniProt P20480) Ncd tail after PKD2 and cold ATP
